From patent US20240368288A1 (HEMOGENYX PHARMACEUTICALS, published 2024)
Values joined by “and” are separate entries in the source; they are usually repeats but may differ in a detail not shown here. Identical values can stand only once.

How the values were obtained:
[1] = biological target: T1, human FLT3 (Fms Related Receptor Tyrosine Kinase 3) expressed on cells (human, UniProt P36888 27-993); assay: flow cytometry on FLT3+ REH cells
T1 construct: whole, on cells; Same entry used for all cell lines; also called FLK2
T1 sequence (looked up): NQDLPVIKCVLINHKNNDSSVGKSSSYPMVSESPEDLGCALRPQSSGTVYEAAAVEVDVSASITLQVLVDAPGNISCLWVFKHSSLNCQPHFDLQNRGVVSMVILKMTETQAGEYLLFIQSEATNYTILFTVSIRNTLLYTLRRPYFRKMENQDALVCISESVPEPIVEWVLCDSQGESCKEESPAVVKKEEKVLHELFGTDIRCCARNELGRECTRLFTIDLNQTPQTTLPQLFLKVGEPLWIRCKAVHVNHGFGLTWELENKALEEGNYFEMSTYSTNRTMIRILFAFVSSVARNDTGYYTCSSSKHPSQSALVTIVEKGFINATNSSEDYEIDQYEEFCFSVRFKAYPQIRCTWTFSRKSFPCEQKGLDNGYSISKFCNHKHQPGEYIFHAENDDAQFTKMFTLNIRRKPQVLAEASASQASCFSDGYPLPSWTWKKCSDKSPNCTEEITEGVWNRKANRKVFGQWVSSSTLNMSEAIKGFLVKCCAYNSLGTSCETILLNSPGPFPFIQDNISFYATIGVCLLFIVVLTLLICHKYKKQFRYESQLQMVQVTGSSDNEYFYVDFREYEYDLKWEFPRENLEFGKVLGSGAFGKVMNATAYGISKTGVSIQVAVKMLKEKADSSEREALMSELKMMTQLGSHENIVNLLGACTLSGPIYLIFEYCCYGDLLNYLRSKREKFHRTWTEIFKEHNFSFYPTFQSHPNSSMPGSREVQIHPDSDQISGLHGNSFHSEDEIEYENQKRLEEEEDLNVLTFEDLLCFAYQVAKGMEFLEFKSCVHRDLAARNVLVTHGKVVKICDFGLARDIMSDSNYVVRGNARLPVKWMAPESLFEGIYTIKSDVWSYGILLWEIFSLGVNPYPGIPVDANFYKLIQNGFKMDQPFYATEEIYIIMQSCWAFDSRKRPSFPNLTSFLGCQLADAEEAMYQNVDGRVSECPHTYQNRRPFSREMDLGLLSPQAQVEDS
Source text: (§1) Cells were washed five times with flow buffer and stained with anti-human IgG lambda antibody conjugated to FITC (Southern Biotech 2070-02). Cells were stained with 7-AAD (7-AAD Viability Staining Solution, Biolegend 420404) followed by flow cytometry analysis.

[2] = biological target: T2, human CD3 on the surface of T cells / Jurkat cells (human, UniProt P07766 23-207; P09693 23-182; P04234 22-171); assay: flow cytometry on CD3+ human T cells
T2 construct: whole, on cells
Source text: as §1

[3] = biological target: T1, human FLT3 (Fms Related Receptor …); assay: cell-based or functional assay
[4] = biological target: T3, Recombinant Human CD3 epsilon Fc Chimera Protein (R&D, no. 9850-CD-050) (human, UniProt P07766 23-126); assay: ELISA, plate coated with recombinant human CD3 epsilon Fc chimera
T3 construct: Bought reagent; Fc part of the bought chimera not given
Procedure: The plate was washed with wash buffer (PBS (Caisson Labs, no. PBL06)+0.05% Tween20 (ThermoFisher, no. 28320)) The plate was blocked with blocking buffer (PBS (Caisson Labs, no. PBL06)+1% (w/v) BSA (Rockland, no. BSA-50)+0.05% Tween20 (ThermoFisher, no 28320)) for two hours at room temperature (RT). Plate was washed twice with wash buffer. […] Plate was washed 4× with wash buffer. Plate was incubated with 100 μL per well of 1:200 goat anti-human lambda-HRP secondary antibody (SouthernBiotech, no. 2070-05) for one hour at RT. Plate was washed 4× with wash buffer. Plate was incubated with 100 μL per well of TMB Substrate (ThermoFisher Cat #34029) for 20 minutes protected from light. Stop solution (2N H₂SO₄) was added to each well. Absorbance of wells was recorded at 450 nm on an Envision plate reader (PerkinElmer). […] Variable slope (four parameters) curve was fit to the data and EC50 was used to compare binding affinities.

[5] = biological target: T1, human FLT3 (Fms Related Receptor …); assay: flow cytometry on FLT3-expressing REH cells
Source text: Cells were washed five times with flow buffer and stained with anti-human IgG Fc antibody conjugated to Alexa Fluor 488 (Jackson Immunoresearch Laboratories, 109-545-008). Cells were stained with 7-AAD (7-AAD Viability Staining Solution, Biolegend 420404) followed by flow cytometry analysis. […] The antibodies used are as described in Example 1.

[6] = biological target: T2, human CD3 on the surface of T cells / …; assay: flow cytometry on primary human pan T cells from cord blood
[7] = biological target: T2, human CD3 on the surface of T cells / …; assay: flow cytometry on CD3-expressing Jurkat cells
Procedure: The mouse heavy and light chain variable regions of SP34 clone were humanized and two humanized variants were tested for their binding affinities to CD3 in Jurkat cells (ATCC) expressing high levels of CD3. Jurkat cells were stained with various concentrations of humanized SP34 variants 2 and 6 (variant 2 VH and VL are SEQ ID NOs: 67 and 68, respectively; variant 6 VH and VL are SEQ ID NOs: 69 and 70, respectively) antibodies prepared in PBS+2% BCS+2 mM EDTA (flow buffer). Cells were washed five times with flow buffer and stained with anti-human IgG Fc antibody conjugated to Alexa Flour 488 (Jackson Immunoresearch Laboratories, 109-095-008). Cells were stained with 7-AAD (7-AAD Viability Staining Solution, Biolegend 420404) followed by flow cytometry analysis.

[8] = biological target: T1, human FLT3 (Fms Related Receptor …); assay: flow cytometry, chimeric antibody on FLT3-expressing REH cells

T2 sequence (P07766 23-207, chain 1 of 3): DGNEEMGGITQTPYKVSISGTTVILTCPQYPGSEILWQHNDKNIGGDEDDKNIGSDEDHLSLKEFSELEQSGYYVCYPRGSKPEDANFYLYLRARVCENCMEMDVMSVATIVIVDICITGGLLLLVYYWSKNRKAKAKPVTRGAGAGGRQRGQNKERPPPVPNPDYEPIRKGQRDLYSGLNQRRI
T2 sequence (P09693 23-182, chain 2 of 3): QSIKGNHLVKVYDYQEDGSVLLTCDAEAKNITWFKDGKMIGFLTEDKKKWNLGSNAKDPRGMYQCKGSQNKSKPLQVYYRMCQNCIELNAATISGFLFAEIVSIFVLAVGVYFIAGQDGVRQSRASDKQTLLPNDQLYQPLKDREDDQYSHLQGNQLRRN
T2 sequence (P04234 22-171, chain 3 of 3): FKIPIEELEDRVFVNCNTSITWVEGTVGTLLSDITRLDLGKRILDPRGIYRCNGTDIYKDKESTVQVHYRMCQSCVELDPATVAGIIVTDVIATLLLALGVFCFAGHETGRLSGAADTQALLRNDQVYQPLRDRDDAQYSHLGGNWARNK
T3 sequence (P07766 23-126, change not shown): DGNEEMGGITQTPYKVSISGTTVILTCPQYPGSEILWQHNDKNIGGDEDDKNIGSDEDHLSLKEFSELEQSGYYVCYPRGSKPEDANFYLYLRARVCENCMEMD

Binder	EC50 [1] [nM]	EC50 [2] [nM]	EC50 of cytotoxicity against REH cells [3] [nM]	other results
CD3xFLT3 bispecific antibody 118BA #3C (bispecific antibody, human IgG1, lambda) heavy: not shown light: QAVVTQEPSFSVSPGGTVTLTCGSSTGAVTTSNYANWVQQTPGQAFRGLIGGTNKRSSGVPDRFSGSLLGDKAALTITGAQADDESDYYCALWFSNHWVFGGGTKLTVLGGQPKAAPSVTLFPPSSEELQANKATLVCLISDFYPGAVTVAWKADSSPVKAGVETTTPSKQSNNKYAASSYLSLTPEQWKSHRSYSCQVTHEGSTVEKTVAPTECS	0.9	32	0.013	
CD3xFLT3 bispecific antibody 118BA #3A (bispecific antibody, human IgG1, lambda) heavy: not shown light: QAVVTQEPSFSVSPGGTVTLTCGSSTGAVTTSNYANWVQQTPGQAFRGLIGGTNKRSSGVPDRFSGSLLGDKAALTITGAQADDESDYYCALWYSNLWVFGGGTKLTVLGGQPKAAPSVTLFPPSSEELQANKATLVCLISDFYPGAVTVAWKADSSPVKAGVETTTPSKQSNNKYAASSYLSLTPEQWKSHRSYSCQVTHEGSTVEKTVAPTECS	1.18	15.5	0.013	
CD3xFLT3 bispecific antibody 118BA #3a1 (bispecific antibody, human IgG1, lambda) heavy: not shown light: QAVVTQEPSFSVSPGGTVTLTCGSSTGAVTTSNYANWVQQTPGQAFRGLIGGTNKRSSGVPDRFSGSLLGDKAALTITGAQADDESDYYCALWFSNHWVFGGGTKLTVLGGQPKAAPSVTLFPPSSEELQANKATLVCLISDFYPGAVTVAWKADSSPVKAGVETTTPSKQSNNKYAASSYLSLTPEQWKSHRSYSCQVTHEGSTVEKTVAPTECS	1.17		0.33	EC50 [4]: 0.0331 µg/mL and 0.16 nM
CD3xFLT3 bispecific antibody 118BA #3B (bispecific antibody, human IgG1, lambda) heavy: not shown light: QAVVTQEPSFSVSPGGTVTLTCGSSTGAVTTSNYANWVQQTPGQAFRGLIGGTNKRVSGVPDRFSGSLLGDKAALTITGAQADDESDYYCALWFSNHWVFGGGTKLTVLGGQPKAAPSVTLFPPSSEELQANKATLVCLISDFYPGAVTVAWKADSSPVKAGVETTTPSKQSNNKYAASSYLSLTPEQWKSHRSYSCQVTHEGSTVEKTVAPTECS	1.23	13.6	0.017	
humanized 118BA variant 1 (antibody, V domains shown, detected with anti-human IgG Fc; also called 18BA-v1; 1-18BA-v1) VH: QVTLKESGPTLVKPTQTLTLTCTFSGFSLSTSTMGVGWIRQPPGKALEWLAHILWNDSKRYNPSLKSRLTITKDTSKKQVVLTMTNMDPVDTATYYCARIVYYSTYVGYFDVWGQGTTVTVSS VL: DIQMTQSPSSLSASVGDRVTITCRASQEISGYLSWLQQKPGKAIKRLIYAASTLQSGVPSRFSGSRSGSDYTLTISSLQPEDFATYYCLQYASYPFTFGQGTKLEIK				EC50 [5]: 0.4 nM
humanized 118BA variant 5 (antibody, V domains shown, detected with anti-human IgG Fc; also called 18BA-v5) VH: QITLKESGPTLVKPTQTLTLTCTFSGFSLSTSTMGVGWIRQPPGKALEWLAHILWNDDKRYGPSLKSRLTITKDTSKKQVVLTMTNMDPVDTATYYCARIVYYSTYVGYFDVWGQGTTVTVSS VL: EIVMTQSPGTLSLSPGERATLSCRASQEISGYLSWLQQKPGQAIRRLIYAASTRATGIPDRFSGSRSGSDYTLTISRLEPEDFAVYYCLQYASYPFTFGQGTKLEIK				EC50 [5]: 0.72 nM
chimeric monoclonal anti-CD3 IgG SP34 clone (antibody, V domains shown) VH: EVQLVESGGGLVQPKGSLKLSCAASGFTFNTYAMNWVRQAPGKGLEWVARIRSKYNNYATYYADSVKDRFTISRDDSQSILYLQMNNLKTEDTAMYYCVRHGNFGNSYVSWFAYWGQGTLVTVSS VL: QAVVTQESALTTSPGETVTLTCRSSTGAVTTSNYANWVQEKPDHLFTGLIGGTNKRAPGVPARFSGSLIGDKAALTITGAQTEDEAIYFCALWYSNLWVFGGGTKLTVL				EC50 [6]: 3.2 nM
humanized SP34 variant 6 (antibody, human IgG1, V domains shown, also called humSP34-v6; humanized anti-CD3 SP34 variant 6) VH: EVQLVESGGGLVQPGGSLKLSCAASGFTFNTYAMNWVRQASGKGLEWVGRIRSKYNNYATYYADSVKGRFTISRDDSKNTAYLQMNSLKTEDTAVYYCVRHGNFGNSYVSWFAYWGQGTLVTVSS VL: QAVVTQEPSFSVSPGGTVTLTCGSSTGAVTTSNYANWVQQTPGQAFRGLIGGTNKRSSGVPDRFSGSLLGDKAALTITGAQADDESDYYCALWYSNLWVFGGGTKLTVLG				EC50 [7]: 3.2 nM
humanized SP34 variant 2 (antibody, human IgG1, V domains shown, also called humSP34-v2; humanized anti-CD3 SP34 variant 2) VH: EVQLVESGGGLVQPGGSLKLSCAASGFTFNTYAMNWVRQASGKGLEWVGRIRSKYNNYATYYADSVKGRFTISRDDSKSTAYLQMNSLKTEDTAVYYCVRHGNFGNSYVSWFAYWGQGTLVTVSS VL: QAVVTQEPSLTVSPGGTVTLTCGSSTGAVTTSNYANWVQQKPGQAFRTLIGGTNKKHPWTPARFSGSLLGGKAALTLSGAQPEDEAEYYCALWYSNLWVFGGGTKLTVLG				EC50 [7]: 2.38 nM
chimeric monoclonal anti-FLT3 antibody 118BA (antibody, V domains shown) VH: QVTLKESGPGILQPSQTLSLTCSFSGFSLSTSTMGVGWIRQPSGKGLEWLLHILWNDSKYYNPALKSRLTISKDTYNKQVFLKIANVDTADTATYYCARIVYYSTYVGYFDVWGAGTTVTVSS VL: DIQMTQSPSSLSASLGERVSLTCRASQEISGYLSWLQQKPDGTIKRLIYAASTLHSGVPKRFSGSRSGSDYSLTISRLESEDVADYYCLQYASYPFTFGSGTKLEIK				EC50 [8]: 0.77 nM
